Assay results from the supplement of paper PMC5998384.

Tests used:
HeLa Kyoto [1] = assay: solubility in G1/S (NP-40 vs SDS abundance) (log2 ratio); higher = more soluble; conditions: cell cycle stage: G1/S
HeLa Kyoto [2] = assay: melting temperature (median over replicates), in situ; higher = more thermally stable
HeLa Kyoto [3] = assay: solubility change mitosis vs G1/S (difference of NP-40 vs SDS log2 ratios) (log2 ratio difference); higher = more soluble in mitosis
HeLa Kyoto [4] = assay: thermal stability score vs G1/S (z-score of summed log2 fold changes over temperatures); higher = more thermally stable than in G1/S
[5] = cell cycle stage: early G1 (4.5 h after nocodazole release)
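Throughout, for melting temperature (median over replicates), in situ: HeLa Kyoto cells synchronized by double thymidine or nocodazole block, proteins quantified by TMT10plex mass spectrometry, three independent biological replicates.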
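Throughout, for solubility change mitosis vs G1/S (difference of NP-40 vs SDS log2 ratios): synchronized HeLa Kyoto cells (double thymidine block for G1/S, nocodazole release for mitosis), protein amounts in NP-40 versus SDS lysates quantified by mass spectrometry, three biological replicates.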
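Throughout, for solubility in G1/S (NP-40 vs SDS abundance): HeLa Kyoto cells arrested at G1/S by double thymidine block, proteins quantified by TMT10plex mass spectrometry in mild NP-40 versus SDS extracts, three biological replicates.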
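Throughout, for thermal stability score vs G1/S (z-score of summed log2 fold changes over temperatures): synchronized HeLa Kyoto cells, proteins quantified by TMT10plex mass spectrometry, three biological replicates, mitosis taken 0.5 h after nocodazole release, G1/S directly after double thymidine block.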

UTP20, sequence (chain, as listed by the source): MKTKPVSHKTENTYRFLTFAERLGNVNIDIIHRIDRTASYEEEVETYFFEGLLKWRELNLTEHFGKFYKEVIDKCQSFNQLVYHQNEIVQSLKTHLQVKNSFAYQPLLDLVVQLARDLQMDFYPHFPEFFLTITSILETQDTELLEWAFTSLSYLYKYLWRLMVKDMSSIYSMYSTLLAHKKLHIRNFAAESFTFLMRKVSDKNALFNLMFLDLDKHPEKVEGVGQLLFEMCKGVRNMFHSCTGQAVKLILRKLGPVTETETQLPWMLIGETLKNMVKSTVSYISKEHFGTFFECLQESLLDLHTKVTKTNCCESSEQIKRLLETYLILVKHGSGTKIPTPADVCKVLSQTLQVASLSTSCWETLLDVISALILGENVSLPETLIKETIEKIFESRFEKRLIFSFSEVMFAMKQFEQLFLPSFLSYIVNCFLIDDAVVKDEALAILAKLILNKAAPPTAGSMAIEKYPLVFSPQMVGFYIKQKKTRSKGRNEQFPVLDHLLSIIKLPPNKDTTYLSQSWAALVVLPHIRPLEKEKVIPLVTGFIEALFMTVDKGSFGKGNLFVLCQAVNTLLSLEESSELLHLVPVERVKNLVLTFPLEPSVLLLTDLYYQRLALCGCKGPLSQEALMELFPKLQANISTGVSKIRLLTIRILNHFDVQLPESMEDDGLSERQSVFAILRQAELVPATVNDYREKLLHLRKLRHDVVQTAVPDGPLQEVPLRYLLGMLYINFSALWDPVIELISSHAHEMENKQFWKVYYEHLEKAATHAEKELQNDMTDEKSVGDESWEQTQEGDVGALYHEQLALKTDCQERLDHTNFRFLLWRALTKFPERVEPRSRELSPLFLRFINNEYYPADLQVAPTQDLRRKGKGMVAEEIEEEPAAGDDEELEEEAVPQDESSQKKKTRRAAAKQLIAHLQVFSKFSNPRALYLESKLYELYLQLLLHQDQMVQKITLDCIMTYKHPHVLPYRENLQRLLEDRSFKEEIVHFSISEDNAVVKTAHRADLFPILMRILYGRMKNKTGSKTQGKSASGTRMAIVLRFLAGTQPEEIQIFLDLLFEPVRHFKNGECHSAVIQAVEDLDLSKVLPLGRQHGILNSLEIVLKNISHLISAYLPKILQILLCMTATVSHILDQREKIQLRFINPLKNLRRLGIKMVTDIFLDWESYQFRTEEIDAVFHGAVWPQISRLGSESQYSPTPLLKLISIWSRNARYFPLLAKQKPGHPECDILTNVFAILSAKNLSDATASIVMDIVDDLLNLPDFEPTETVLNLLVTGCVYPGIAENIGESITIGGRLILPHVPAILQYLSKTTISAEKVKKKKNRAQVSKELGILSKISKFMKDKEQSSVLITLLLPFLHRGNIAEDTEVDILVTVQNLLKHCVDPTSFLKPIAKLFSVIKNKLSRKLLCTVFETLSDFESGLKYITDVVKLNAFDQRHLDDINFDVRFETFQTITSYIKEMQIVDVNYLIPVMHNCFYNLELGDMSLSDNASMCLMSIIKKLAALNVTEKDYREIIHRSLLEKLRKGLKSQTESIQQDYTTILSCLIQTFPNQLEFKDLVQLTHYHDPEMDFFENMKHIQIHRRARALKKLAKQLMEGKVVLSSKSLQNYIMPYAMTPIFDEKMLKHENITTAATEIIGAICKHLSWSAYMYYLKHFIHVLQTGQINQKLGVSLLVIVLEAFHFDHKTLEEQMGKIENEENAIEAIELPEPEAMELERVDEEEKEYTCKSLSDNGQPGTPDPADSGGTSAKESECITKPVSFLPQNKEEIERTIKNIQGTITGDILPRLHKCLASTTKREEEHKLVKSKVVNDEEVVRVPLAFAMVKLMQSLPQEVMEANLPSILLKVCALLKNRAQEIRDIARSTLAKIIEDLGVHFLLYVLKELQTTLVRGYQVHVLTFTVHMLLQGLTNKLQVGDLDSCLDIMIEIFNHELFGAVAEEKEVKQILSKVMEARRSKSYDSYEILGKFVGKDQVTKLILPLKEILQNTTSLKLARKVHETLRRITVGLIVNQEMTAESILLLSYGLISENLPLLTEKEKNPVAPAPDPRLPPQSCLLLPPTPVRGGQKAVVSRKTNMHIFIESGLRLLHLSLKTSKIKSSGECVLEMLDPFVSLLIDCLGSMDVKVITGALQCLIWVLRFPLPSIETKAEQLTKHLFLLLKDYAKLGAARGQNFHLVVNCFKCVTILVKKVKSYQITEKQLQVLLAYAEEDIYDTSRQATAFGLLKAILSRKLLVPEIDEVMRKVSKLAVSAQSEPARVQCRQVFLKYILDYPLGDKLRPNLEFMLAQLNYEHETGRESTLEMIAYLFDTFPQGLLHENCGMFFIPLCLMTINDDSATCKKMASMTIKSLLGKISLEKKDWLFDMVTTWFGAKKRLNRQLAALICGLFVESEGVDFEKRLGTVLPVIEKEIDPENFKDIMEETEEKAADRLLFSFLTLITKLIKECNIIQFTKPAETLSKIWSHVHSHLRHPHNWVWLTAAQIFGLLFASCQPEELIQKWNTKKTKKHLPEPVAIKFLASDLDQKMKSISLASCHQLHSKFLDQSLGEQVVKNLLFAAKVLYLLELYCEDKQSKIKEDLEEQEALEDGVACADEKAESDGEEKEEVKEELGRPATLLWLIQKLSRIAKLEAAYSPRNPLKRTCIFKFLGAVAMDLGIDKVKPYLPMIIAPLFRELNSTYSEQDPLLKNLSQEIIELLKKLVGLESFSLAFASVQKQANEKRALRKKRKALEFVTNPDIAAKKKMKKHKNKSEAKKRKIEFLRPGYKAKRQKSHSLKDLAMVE

Substance | solubility in G1/S (log2) (HeLa Kyoto [1]) | melting temperature (HeLa Kyoto [2]; cell cycle stage: G1/S) | melting temperature (HeLa Kyoto [2]; cell cycle stage: mitosis) | solubility change mitosis (log2) (HeLa Kyoto [3]) | thermal stability score (HeLa Kyoto [4]; [5]) | thermal stability score (HeLa Kyoto [4]; cell cycle stage: mitosis)
MAAWKSWTALRLCATVVVLDMVVCKGFVEDLDESFKENRNDDIWLVDFYAPWCGHCKKLEPIWNEVGLEMKSIGSPVKVGKMDATSYSSIASEFGVRGYPTIKLLKGDLAYNYRGPRTKDDIIEFAHRVSGALIRPLPSQQMFEHMQKRHRVFFVYVGGESPLKEKYIDAASELIVYTYFFSASEEVVPEYVTLKEMPAVLVFKDETYFVYDEYEDGDLSSWINRERFQNYLAMDGFLLYELGDTGKLVALAVIDEKNTSVEHTRLKSIIQEVARDYRDLFHRDFQFGHMDGNDYINTLLMDELTVPTVVVLNTSNQQYFLLDRQIKNVEDMVQFINNILDGTVEAQGGDSILQRLKRIVFDAKSTIVSIFKSSPLMGCFLFGLPLGVISIMCYGIYTADTDGGYIEERYEVSKSENENQEQIEESKEQQEPSSGGSVVPTVQEPKDVLEKKKD [TMX3] | 0.2 | 54.5 °C | 54.3 °C | -0.0543 | 0.827 | 3.44
EIF4G3 | 0.109 | 49.1 °C | 49.4 °C | -0.178 | 0.306 | 2.44
MDPNTIIEALRGTMDPALREAAERQLNEAHKSLNFVSTLLQITMSEQLDLPVRQAGVIYLKNMITQYWPDRETAPGDISPYTIPEEDRHCIRENIVEAIIHSPELIRVQLTTCIHHIIKHDYPSRWTAIVDKIGFYLQSDNSACWLGILLCLYQLVKNYEYKKPEERSPLVAAMQHFLPVLKDRFIQLLSDQSDQSVLIQKQIFKIFYALVQYTLPLELINQQNLTEWIEILKTVVNRDVPNETLQVEEDDRPELPWWKCKKWALHILARLFERYGSPGNVSKEYNEFAEVFLKAFAVGVQQVLLKVLYQYKEKQYMAPRVLQQTLNYINQGVSHALTWKNLKPHIQGIIQDVIFPLMCYTDADEELWQEDPYEYIRMKFDVFEDFISPTTAAQTLLFTACSKRKEVLQKTMGFCYQILTEPNADPRKKDGALHMIGSLAEILLKKKIYKDQMEYMLQNHVFPLFSSELGYMRARACWVLHYFCEVKFKSDQNLQTALELTRRCLIDDREMPVKVEAAIALQVLISNQEKAKEYITPFIRPVMQALLHIIRETENDDLTNVIQKMICEYSEEVTPIAVEMTQHLAMTFNQVIQTGPDEEGSDDKAVTAMGILNTIDTLLSVVEDHKEITQQLEGICLQVIGTVLQQHVLEFYEEIFSLAHSLTCQQVSPQMWQLLPLVFEVFQQDGFDYFTDMMPLLHNYVTVDTDTLLSDTKYLEMIYSMCKKVLTGVAGEDAECHAAKLLEVIILQCKGRGIDQCIPLFVEAALERLTREVKTSELRTMCLQVAIAALYYNPHLLLNTLENLRFPNNVEPVTNHFITQWLNDVDCFLGLHDRKMCVLGLCALIDMEQIPQVLNQVSGQILPAFILLFNGLKRAYACHAEHENDSDDDDEAEDDDETEELGSDEDDIDEDGQEYLEILAKQAGEDGDDEDWEEDDAEETALEGYSTIIDDEDNPVDEYQIFKAIFQTIQNRNPVWYQALTHGLNEEQRKQLQDIATLADQRRAAHESKMIEKHGGYKFSAPVVPSSFNFGGPAPGMN [IPO7] | -0.0648 | 52.7 °C | 51.3 °C | -0.133 | 1.18 | 3.75
MTAPCSQPAQLPGRRQLGLVPFPPPPPRTPLLWLLLLLLAAVAPARGWESGDLELFDLVEEVQLNFYQFLGVQQDASSADIRKAYRKLSLTLHPDKNKDENAETQFRQLVAIYEVLKDDERRQRYDDILINGLPDWRQPVFYYRRVRKMSNAELALLLFIILTVGHYAVVWSIYLEKQLDELLSRKKREKKKKTGSKSVDVSKLGASEKNERLLMKPQWHDLLPCKLGIWFCLTLKALPHLIQDAGQFYAKYKETRLKEKEDALTRTELETLQKQKKVKKPKPEFPVYTPLETTYIQSYDHGTSIEEIEEQMDDWLENRNRTQKKQAPEWTEEDLSQLTRSMVKFPGGTPGRWEKIAHELGRSVTDVTTKAKQLKDSVTCSPGMVRLSELKSTVQNSRPIKTATTLPDDMITQREDAEGVAAEEEQEGDSGEQETGATDARPRRRKPARLLEATAKPEPEEKSRAKRQKDFDIAEQNESSDEESLRKERARSAEEPWTQNQQKLLELALQQYPRGSSDRWDKIARCVPSKSKEDCIARYKLLVELVQKKKQAKS [DNAJC1] | 0.161 | 52.8 °C | 52.8 °C | -0.0698 | 1.18 | 1.18
NF1 | -0.315 | 49.7 °C | 50.4 °C | -0.137 | -0.998 | -0.184
MAAAAGSCARVAAWGGKLRRGLAVSRQAVRSPGPLAAAVAGAALAGAGAAWHHSRVSVAARDGSFTVSAQKNVEHGIIYIGKPSLRKQRFMQFSSLEHEGEYYMTPRDFLFSVMFEQMERKTSVKKLTKKDIEDTLSGIQTAGCGSTFFRDLGDKGLISYTEYLFLLTILTKPHSGFHVAFKMLDTDGNEMIEKREFFKLQKIISKQDDLMTVKTNETGYQEAIVKEPEINTTLQMRFFGKRGQRKLHYKEFRRFMENLQTEIQEMEFLQFSKGLSFMRKEDFAEWLLFFTNTENKDIYWKNVREKLSAGESISLDEFKSFCHFTTHLEDFAIAMQMFSLAHRPVRLAEFKRAVKVATGQELSNNILDTVFKIFDLDGDECLSHEEFLGVLKNRMHRGLWVPQHQSIQEYWKCVKKESIKGVKEVWKQAGKGLF [MICU2] | -0.297 | 52.1 °C | 52.1 °C | -0.111 | 0.279 | 0.383
MARGLGAPHWVAVGLLTWATLGLLVAGLGGHDDLHDDLQEDFHGHSHRHSHEDFHHGHSHAHGHGHTHESIWHGHTHDHDHGHSHEDLHHGHSHGYSHESLYHRGHGHDHEHSHGGYGESGAPGIKQDLDAVTLWAYALGATVLISAAPFFVLFLIPVESNSPRHRSLLQILLSFASGGLLGDAFLHLIPHALEPHSHHTLEQPGHGHSHSGQGPILSVGLWVLSGIVAFLVVEKFVRHVKGGHGHSHGHGHAHSHTRGSHGHGRQERSTKEKQSSEEEEKETRGVQKRRGGSTVPKDGPVRPQNAEEEKRGLDLRVSGYLNLAADLAHNFTDGLAIGASFRGGRGLGILTTMTVLLHEVPHEVGDFAILVQSGCSKKQAMRLQLLTAVGALAGTACALLTEGGAVGSEIAGGAGPGWVLPFTAGGFIYVATVSVLPELLREASPLQSLLEVLGLLGGVIMMVLIAHLE [SLC39A7] | -0.392 | 59.2 °C | 57.1 °C | -0.00492 | -0.93 | -2.25
MDGKRRPGPGPGVPPKRARGGLWDDDDAPRPSQFEEDLALMEEMEAEHRLQEQEEEELQSVLEGVADGQVPPSAIDPRWLRPTPPALDPQTEPLIFQQLEIDHYVGPAQPVPGGPPPSRGSVPVLRAFGVTDEGFSVCCHIHGFAPYFYTPAPPGFGPEHMGDLQRELNLAISRDSRGGRELTGPAVLAVELCSRESMFGYHGHGPSPFLRITVALPRLVAPARRLLEQGIRVAGLGTPSFAPYEANVDFEIRFMVDTDIVGCNWLELPAGKYALRLKEKATQCQLEADVLWSDVVSHPPEGPWQRIAPLRVLSFDIECAGRKGIFPEPERDPVIQICSLGLRWGEPEPFLRLALTLRPCAPILGAKVQSYEKEEDLLQAWSTFIRIMDPDVITGYNIQNFDLPYLISRAQTLKVQTFPFLGRVAGLCSNIRDSSFQSKQTGRRDTKVVSMVGRVQMDMLQVLLREYKLRSYTLNAVSFHFLGEQKEDVQHSIITDLQNGNDQTRRRLAVYCLKDAYLPLRLLERLMVLVNAVEMARVTGVPLSYLLSRGQQVKVVSQLLRQAMHEGLLMPVVKSEGGEDYTGATVIEPLKGYYDVPIATLDFSSLYPSIMMAHNLCYTTLLRPGTAQKLGLTEDQFIRTPTGDEFVKTSVRKGLLPQILENLLSARKRAKAELAKETDPLRRQVLDGRQLALKVSANSVYGFTGAQVGKLPCLEISQSVTGFGRQMIEKTKQLVESKYTVENGYSTSAKVVYGDTDSVMCRFGVSSVAEAMALGREAADWVSGHFPSPIRLEFEKVYFPYLLISKKRYAGLLFSSRPDAHDRMDCKGLEAVRRDNCPLVANLVTASLRRLLIDRDPEGAVAHAQDVISDLLCNRIDISQLVITKELTRAASDYAGKQAHVELAERMRKRDPGSAPSLGDRVPYVIISAAKGVAAYMKSEDPLFVLEHSLPIDTQYYLEQQLAKPLLRIFEPILGEGRAEAVLLRGDHTRCKTVLTGKVGGLLAFAKRRNCCIGCRTVLSHQGAVCEFCQPRESELYQKEVSHLNALEERFSRLWTQCQRCQGSLHEDVICTSRDCPIFYMRKKVRKDLEDQEQLLRRFGPPGPEAW [POLD1] | -0.0376 | 48.3 °C | 49.1 °C | -0.101 | 5.56 | 6.68
UTP20 | -1.01 | 47.3 °C | 50.7 °C | 0.363 | 1.17 | 5.97
